Results: doi:10.1101/2021.07.08.451689 (bioRxiv, 2021)

B1: MLKL N-terminal domain of 139 amino acid residues (domain or fragment, human, UniProt Q8NB16 1-139, looked up)
chain: MENLKHIITLGQVIHKRCEEMKYCKKQCRRLGHRVLGLIKPLEMLQDQGKRSVPSEKLTTAMNRFKAALEEANGEIEKFSNRSNICRFLTASQDKILFKDVNRKLSDVWKELSLLLQVEQRMPVSPISQGASWAQEDQQ
B2: MLKL N-terminal domain of 154 amino acid residues with mutation D144K (domain or fragment, human, UniProt Q8NB16 1-154, looked up)
chain: MENLKHIITLGQVIHKRCEEMKYCKKQCRRLGHRVLGLIKPLEMLQDQGKRSVPSEKLTTAMNRFKAALEEANGEIEKFSNRSNICRFLTASQDKILFKDVNRKLSDVWKELSLLLQVEQRMPVSPISQGASWAQEDQQDADEKRRAFQMLRRD

Target: the molecule itself
Experiment: SEC

| Protein | binding result |
| --- | --- |
| B1 | binds |
| B2 | binds |
